One molecule from patent US20210140973A1 (NITTO BOSEKI, published 2021) can be followed below.

In experiment [1] the target is T1, human IgG4 purified from human serum (human).
T1 construct: also called IgG4 antigen; human IgG4-sensitized latex
As to the kind of experiment: SPR (Biacore), IgG4 immobilized on chip by amino coupling, antibody as analyte. Here is the method:
MaI4-08 and MaI4-09-produced antibodies, and, as a control, MaI4-05-produced antibody and 1 mg/mL of HP6025 were adjusted to 1 mg/mL. In addition, 1 mg/mL of IgG4 was prepared from the one purified from human serum. According to the protocol of Sumika Chemical Analysis Service, Ltd., IgG4 was immobilized onto a chip by an amino coupling method, and a sensorgram was obtained by a Biacore model. The obtained binding rate constant (kₐ), dissociation rate constant (kd), and dissociation constant (KD) were as shown in Table 11.

Experiment [2] has as its target T2, H-39.
T2 construct: not shown: N-terminal GST tag and the vector-coded linker of pGEX-6P-1
T2 chain: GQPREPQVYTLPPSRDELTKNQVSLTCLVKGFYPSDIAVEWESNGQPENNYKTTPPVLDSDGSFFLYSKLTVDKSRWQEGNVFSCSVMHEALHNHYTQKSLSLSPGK
As to the kind of experiment: Western blot: E. coli lysate with the GST-tagged peptide, SDS-PAGE, PVDF membrane, POD-labelled antibody diluted 1000-fold, ECL. As to the method: (§1) Based on the designed amino acid sequences, base sequences suitable for expressing protein in E. coli were designed according to the protocol of GenScript Corporation, thereby preparing vector pGEX-6P-1 (GE Healthcare Bio-Sciences Corp.) to which the respective base sequences are inserted. The prepared expression plasmid was introduced to E. coli BL 21 strain, thereby obtaining a transformant. The transformant was cultured by an ordinary method and a protein expression was induced by IPTG. After the cells were collected by centrifugation, the cells were dissolved with an ordinary lysis solution, and subjected to ultrasonication. 6 μL of an SDS sample buffer solution was added to 6 μL of the obtained lysate. The respective prepared samples were subjected to a heat treatment at 95° C. for 5 minutes. 10 μL of the E. coli disrupted sample was added to each well of 5 to 20% electrophoresis gel (Atto Corportation) to which an SDS electrophoresis buffer solution was added. Similarly, a molecular weight standard (Bio-Rad Laboratories, Inc.) was added to each well and electrophoresed. After completing the electrophoresis, the electrophoresis gel was transcribed to a PVDF membrane (Millipore Corporation) with a transfer buffer solution. The PVDF membrane was immersed in a membrane blocking buffer solution, and then shaking was carried out at room temperature for 30 minutes. Amino groups of MaI4-08, MaI4-09, and MaI4-05-produced antibodies were subjected to a POD labeling treatment with a POD labeling kit (Dojindo Molecular Technologies, Inc.). The obtained labeled antibodies each were diluted 1000-fold by PBST. After the PVDF membrane was cleaned with PBST, the antibody solutions prepared each were added to the PVDF membrane, and then the reaction was performed at room temperature for 1 hour. After the PVDF membrane was cleaned by PBST, a signal was detected with ECL Prime Western Blotting Detection Reagents (GE Healthcare) with Image Quant Las4000.

In experiment [3] the target is T3, GST-tagged peptide H8 (positions 111 to 327 of the human IgG4 heavy chain constant region) (human, UniProt P01861 111-325 = IgG part).
T3 construct: E. coli lysate on Western blot; not shown: GST tag (glutathione S-transferase) linked to the N terminal, expressed from vector pGEX-6P-1
T3 sequence (P01861 other isoform, or with tags, fused parts or gaps): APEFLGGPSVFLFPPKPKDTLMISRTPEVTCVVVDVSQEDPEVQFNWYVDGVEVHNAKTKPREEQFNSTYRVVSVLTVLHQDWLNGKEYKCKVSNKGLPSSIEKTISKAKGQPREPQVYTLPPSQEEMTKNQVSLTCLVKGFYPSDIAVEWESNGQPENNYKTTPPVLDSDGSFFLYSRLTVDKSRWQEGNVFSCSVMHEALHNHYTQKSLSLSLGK
The description is as above. As to the method:
as §1

Experiment [4] concerns the target T4, GST-tagged peptide H10 (positions 221 to 327 of the human IgG4 heavy chain constant region, CH3 region) (human, UniProt P01861 221-325 = IgG part).
T4 construct: E. coli lysate on Western blot; not shown: GST tag (glutathione S-transferase) linked to the N terminal, expressed from vector pGEX-6P-1
The description is as above. Here is the method: as §1

For experiment [5], the target named is T5, GST-tagged peptide H35 (H10 with Q235R, R289K, E299Q and L325P) (human, UniProt P0DOX5 343-449 = IgG part).
T5 construct: not shown: N-terminal GST tag (from vector pGEX-6P-1) and any vector linker
T5 chain: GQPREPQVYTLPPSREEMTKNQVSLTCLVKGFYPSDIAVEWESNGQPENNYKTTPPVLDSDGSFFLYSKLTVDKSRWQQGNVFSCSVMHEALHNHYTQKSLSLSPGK
The experiment is described as above. As to the method: as §1

For experiment [6], the target named is T6, Myeloma human IgG4 (EMD Millipore) (human).
T6 construct: Bought myeloma protein
T6 sequence (constant, as listed by the source limits assumed): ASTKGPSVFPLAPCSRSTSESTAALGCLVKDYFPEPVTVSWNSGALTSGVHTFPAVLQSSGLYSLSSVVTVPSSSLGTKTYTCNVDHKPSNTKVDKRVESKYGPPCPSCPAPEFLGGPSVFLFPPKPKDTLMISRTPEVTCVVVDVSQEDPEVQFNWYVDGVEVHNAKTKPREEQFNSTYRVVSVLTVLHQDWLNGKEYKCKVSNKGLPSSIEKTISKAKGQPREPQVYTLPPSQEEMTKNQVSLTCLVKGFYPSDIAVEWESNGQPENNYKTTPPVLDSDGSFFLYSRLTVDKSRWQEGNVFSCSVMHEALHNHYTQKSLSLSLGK
The experiment in a line: latex agglutination inhibition; 3000 mg/dL myeloma protein as free sample against IgG4-sensitized latex, read on the IgG4 calibration curve. Here is the method:
(§2) In a case where the MaI4-08-produced antibody or the MaI4-09-produced antibody was used as an anti-human IgG4 mouse monoclonal antibody in the first reagent, specificity to human IgG4 was evaluated. As a sample, Myeloma human IgG4 solution (EMD Millipore) adjusted to 3000 mg/dL was used. In addition, as control samples, Myeloma human IgG1 solution (EMD Millipore), Myeloma human IgG2 solution (EMD Millipore), and Myeloma human IgG3 solution (Sigma-Aldrich Co. LLC) prepared similarly to the above were used. A saline solution was used as a blank sample. For the measurement of human IgG4 concentrations, 120 μL of the first reagent and 120 μL of the second reagent were reacted with 3 μL of a sample using Hitachi type 7180 automatic analyzer, and change amount of absorbance in the range of photometric points of 18 to 28 (corresponding to 1 minute to 4 minutes after addition of R2) was measured at a main wavelength of 570 nm and a complementary wavelength of 800 nm by a two-point end method (n=2). A calibration curve was created from the results of Table 8 and the human IgG4 concentration in a sample was calculated therefrom.

Experiment [7] concerns the target T7, Myeloma human IgG1 (EMD Millipore) (human).
T7 construct: Bought myeloma protein
The experiment is described as above. As to the method:
as §2

For experiment [8], the target named is T8, Myeloma human IgG2 (EMD Millipore) (human).
T8 construct: Bought myeloma protein
T8 sequence (constant, as listed by the source limits assumed): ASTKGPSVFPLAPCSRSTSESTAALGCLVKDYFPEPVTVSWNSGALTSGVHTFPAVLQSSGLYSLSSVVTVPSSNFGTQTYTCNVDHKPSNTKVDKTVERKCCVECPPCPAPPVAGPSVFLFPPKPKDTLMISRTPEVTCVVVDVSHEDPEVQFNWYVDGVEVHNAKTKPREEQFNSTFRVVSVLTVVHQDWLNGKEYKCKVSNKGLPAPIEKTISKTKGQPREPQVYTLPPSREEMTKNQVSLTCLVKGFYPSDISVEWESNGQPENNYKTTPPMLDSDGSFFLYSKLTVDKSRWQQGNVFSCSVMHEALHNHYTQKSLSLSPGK
Described as above. As to the method:
as §2

Experiment [9] addresses T9, Myeloma human IgG3 (Sigma-Aldrich Co. LLC) (human).
T9 construct: Bought myeloma protein
Described as above. Here is the method: as §2

T9 sequence (constant, as listed by the source limits assumed): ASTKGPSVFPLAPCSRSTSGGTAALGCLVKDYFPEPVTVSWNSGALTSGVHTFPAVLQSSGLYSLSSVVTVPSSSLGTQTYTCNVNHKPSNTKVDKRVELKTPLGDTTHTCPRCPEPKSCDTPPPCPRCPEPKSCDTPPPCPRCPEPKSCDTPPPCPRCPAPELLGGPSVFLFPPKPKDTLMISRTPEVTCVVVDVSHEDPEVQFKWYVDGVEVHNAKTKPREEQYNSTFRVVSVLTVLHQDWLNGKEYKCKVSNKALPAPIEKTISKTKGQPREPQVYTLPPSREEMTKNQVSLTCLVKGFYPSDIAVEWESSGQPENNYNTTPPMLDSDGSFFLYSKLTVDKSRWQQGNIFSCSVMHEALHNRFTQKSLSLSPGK
T7 sequence (constant, as listed by the source limits assumed): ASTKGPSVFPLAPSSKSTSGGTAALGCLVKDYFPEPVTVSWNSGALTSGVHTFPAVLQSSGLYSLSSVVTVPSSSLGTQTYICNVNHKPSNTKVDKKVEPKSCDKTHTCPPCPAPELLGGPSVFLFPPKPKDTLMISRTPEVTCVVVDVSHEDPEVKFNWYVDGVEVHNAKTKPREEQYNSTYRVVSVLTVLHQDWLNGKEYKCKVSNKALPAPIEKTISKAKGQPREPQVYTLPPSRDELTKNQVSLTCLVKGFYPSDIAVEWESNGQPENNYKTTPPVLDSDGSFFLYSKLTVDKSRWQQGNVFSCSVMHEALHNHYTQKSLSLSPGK

B1: MaI4-08-produced antibody (antibody, IgG1, V domains shown)
VH: EVQLQQSGPELVKPGTSVKMSCKASGYIFTSYILHWVKQKPGQGLEWIAYINPYNDGTKYKEKFKGKGTLTSDKSSSTAYMELSSLTSEDSAVYYCARSGGGYGNYAWFAYWGPGTLVTVST
VL: DIQMTQSPSSLSASLGERVSLTCRASQDIGSSLNWLQQEPDGTIKRLIYATSSLDSGVPKRFSGSRSGSDYSLTISSLESEDFVDYYCLQYASYPPTFGAGTKLELK
notes: Purified on protein G from hybridoma culture supernatant; POD-labelled for the Western blots
In turn, B1 displayed a Kd in experiment [1] of 0.406 nM. In addition, in experiment [1], the koff stood at 0.000223 s⁻¹. The molecule further yielded a kon in experiment [1] of 549000 M⁻¹ s⁻¹. Further, the binding result was “binds” in experiment [2], “binds” in [3], “binds” in experiment [4] and “no binding” in experiment [5]. The “Measured value (apparent human IgG4 concentration)” value stood at 1090 mg/dL in [6], 10.1 mg/dL in [7], 12.8 mg/dL in experiment [8] and 4.1 mg/dL in [9].
